Experimental data from patent US20030216563.

Chain of GST:Weel^152 (chain, as listed by the source): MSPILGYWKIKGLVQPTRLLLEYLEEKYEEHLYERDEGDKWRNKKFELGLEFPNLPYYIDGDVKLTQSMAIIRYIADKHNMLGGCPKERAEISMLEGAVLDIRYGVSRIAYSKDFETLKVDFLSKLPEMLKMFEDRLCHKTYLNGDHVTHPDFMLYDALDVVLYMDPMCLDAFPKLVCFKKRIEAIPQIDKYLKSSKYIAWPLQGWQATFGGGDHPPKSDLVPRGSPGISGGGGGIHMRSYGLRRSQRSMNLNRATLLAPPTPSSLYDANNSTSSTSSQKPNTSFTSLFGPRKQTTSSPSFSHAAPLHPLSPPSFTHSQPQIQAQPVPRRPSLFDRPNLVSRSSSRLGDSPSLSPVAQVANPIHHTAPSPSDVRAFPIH
Chain of GST:Weel^70 (chain, as listed by the source): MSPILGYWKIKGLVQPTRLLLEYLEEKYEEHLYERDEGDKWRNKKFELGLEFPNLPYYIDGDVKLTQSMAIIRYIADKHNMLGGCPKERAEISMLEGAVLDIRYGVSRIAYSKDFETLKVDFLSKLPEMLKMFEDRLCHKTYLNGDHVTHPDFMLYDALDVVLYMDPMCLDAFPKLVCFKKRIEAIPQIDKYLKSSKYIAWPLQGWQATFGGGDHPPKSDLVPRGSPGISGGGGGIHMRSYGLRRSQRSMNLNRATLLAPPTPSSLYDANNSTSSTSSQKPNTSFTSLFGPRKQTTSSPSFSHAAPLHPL

B1: Cds1 (protein)
chain: MEEPEEATQATQEAPLHVSQNIAKQVVNNENVFMKLVMTRMLDGKTEVIPLTTDVHNGFWRFGRHKSCEVVLNGPRVSNFHFEIYQGHRNDSDESENVVFLHDHSSNGTFLNFERLAKNSRTILSNGDEIRIGLGVPKDEISFLCQVPVKHSRDSQKNMIKSENSHYEIIRTLGSGTFAVVKLAVEVNSGKWYAIKIINKRKILLTSSEKRATEMFQREIDILKSLHHPGVVQCHEIFENDDELFIVMEYVEGGDLMDFLIANGSIDEQDCKPLLKQLLETLLHLHKQGVTHRDIKPENILITNDFHLKISDFGLAKVIHGTGTFLETFCGTMGYLAPEVLKSKNVNLDGGYDDKVDIWSLGCVLYVMLTASIPFASSSQAKCIELISKGAYPIEPLLENEISEEGIDLINRMLEINPEKRISESEALQHPWFYTVSTHEHRTPPSSSEHEATEQLNSSS
phosphorylation by bead-associated kinase with [gamma-32P]ATP (GST:Weel^152): GST:Weel^152 is phosphorylated by this kinase and another that is active prior to HU treatment | in vitro phosphorylation, two-dimensional tryptic phosphopeptide map (GST:Weel^70): Cds1 purified from fission yeast phosphorylated GST:Weel^70 in vitro, producing a two-dimensional tryptic phosphopeptide map that was identical to a map made from GST:Weel^70 phosphorylated by its associated kinase
